T1: mouse IL-2Rβγc on murine cells (CTLL-2 T cells, primary CD4+ T cells) (mouse, UniProt P16297 27-539; P34902 23-369)
T1 sequence (looked up) 1: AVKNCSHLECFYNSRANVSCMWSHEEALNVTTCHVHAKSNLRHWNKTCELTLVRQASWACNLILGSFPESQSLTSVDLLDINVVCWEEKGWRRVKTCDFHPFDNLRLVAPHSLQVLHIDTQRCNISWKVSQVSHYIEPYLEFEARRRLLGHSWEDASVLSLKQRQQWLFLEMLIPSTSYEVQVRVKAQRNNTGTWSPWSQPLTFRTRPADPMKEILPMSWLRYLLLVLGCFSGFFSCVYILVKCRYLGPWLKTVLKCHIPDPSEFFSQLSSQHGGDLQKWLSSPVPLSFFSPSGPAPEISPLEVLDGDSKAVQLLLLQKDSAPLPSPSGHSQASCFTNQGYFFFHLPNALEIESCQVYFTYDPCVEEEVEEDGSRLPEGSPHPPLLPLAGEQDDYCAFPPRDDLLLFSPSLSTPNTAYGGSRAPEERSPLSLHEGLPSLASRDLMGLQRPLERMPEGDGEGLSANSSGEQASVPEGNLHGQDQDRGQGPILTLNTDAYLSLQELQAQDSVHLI
T1 sequence (looked up) 2: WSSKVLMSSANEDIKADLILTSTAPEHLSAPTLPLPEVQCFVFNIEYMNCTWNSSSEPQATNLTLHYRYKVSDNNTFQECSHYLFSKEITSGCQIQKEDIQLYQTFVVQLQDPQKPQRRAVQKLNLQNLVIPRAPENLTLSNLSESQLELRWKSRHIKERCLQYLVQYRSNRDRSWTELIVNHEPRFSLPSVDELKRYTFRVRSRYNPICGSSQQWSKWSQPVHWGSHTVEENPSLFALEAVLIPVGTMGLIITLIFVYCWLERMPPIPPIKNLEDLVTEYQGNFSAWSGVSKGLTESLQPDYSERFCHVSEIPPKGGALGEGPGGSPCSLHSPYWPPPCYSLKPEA

T2: human IL-2 receptor α subunit (hIL-2Rα) (human, UniProt P01589 22-238, biotin on the C-terminal biotin acceptor peptide)
T2 construct: range 1-217; Biotinylated and immobilised on streptavidin; also called human IL-2Rα; CD25
T2 sequence: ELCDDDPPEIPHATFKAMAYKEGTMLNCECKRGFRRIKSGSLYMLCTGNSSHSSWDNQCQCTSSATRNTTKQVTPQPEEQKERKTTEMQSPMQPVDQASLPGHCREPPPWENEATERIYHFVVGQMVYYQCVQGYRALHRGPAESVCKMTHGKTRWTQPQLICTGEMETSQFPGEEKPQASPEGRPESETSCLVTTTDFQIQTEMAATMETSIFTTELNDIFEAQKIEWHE

T3: mouse IL-2 receptor α subunit (mIL-2Rα) (mouse, UniProt P01590 22-236, biotin on the C-terminal biotin acceptor peptide)
T3 construct: extracellular domain; Biotinylated and immobilised on streptavidin; also called murine IL-2Rα
T3 sequence: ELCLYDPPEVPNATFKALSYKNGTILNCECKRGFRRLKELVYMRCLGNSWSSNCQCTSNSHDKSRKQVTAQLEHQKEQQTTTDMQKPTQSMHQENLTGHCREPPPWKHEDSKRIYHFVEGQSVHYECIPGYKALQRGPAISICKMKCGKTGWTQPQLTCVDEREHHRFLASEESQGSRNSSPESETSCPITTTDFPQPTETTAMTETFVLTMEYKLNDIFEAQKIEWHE

T4: mouse IL-2 receptor β subunit (mIL-2Rβ) (mouse, UniProt P16297 27-240, biotin on the C-terminal biotin acceptor peptide)
T4 construct: extracellular domain; Biotinylated form for SPR; also called MmIL-2Rβ; murine IL-2Rβ
T4 sequence: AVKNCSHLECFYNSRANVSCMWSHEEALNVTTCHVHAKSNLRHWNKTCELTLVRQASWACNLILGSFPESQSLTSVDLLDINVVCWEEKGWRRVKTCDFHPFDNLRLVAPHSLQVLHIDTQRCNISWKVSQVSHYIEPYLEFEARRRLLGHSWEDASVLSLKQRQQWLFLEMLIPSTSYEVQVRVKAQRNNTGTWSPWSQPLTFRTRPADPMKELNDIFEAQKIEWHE

T5: mouse IL-2 receptor βγc heterodimer (mIL-2Rβγc), soluble (mouse, UniProt P16297 27-240; P34902 23-263, biotin on the C-terminal biotin acceptor peptide)
T5 construct: extracellular domain; also called MmIL-2Rβγc; mIL-2Rβνc
T5 sequence 1: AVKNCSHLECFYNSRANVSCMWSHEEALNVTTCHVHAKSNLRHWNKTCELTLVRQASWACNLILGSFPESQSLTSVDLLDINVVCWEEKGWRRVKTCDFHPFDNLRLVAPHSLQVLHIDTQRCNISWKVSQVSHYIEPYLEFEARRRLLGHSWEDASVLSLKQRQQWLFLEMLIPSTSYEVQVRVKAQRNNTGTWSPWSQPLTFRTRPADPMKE
T5 sequence 2: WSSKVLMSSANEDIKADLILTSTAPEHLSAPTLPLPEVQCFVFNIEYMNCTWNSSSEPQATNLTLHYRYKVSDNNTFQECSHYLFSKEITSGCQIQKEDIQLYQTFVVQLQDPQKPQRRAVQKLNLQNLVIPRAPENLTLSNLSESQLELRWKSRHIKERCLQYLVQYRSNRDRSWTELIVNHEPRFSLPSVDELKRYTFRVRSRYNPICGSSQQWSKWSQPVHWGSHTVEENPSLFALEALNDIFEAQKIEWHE

B1: Neoleukin-2/15 (designed binder)
chain: PKKKIQLHAEHALYDALMILNIVKTNSPPAEEKLEDYAFNFELILEEIARLFESGDQKDEAEKAKRMKEWMKRIKTTASEDEQEEMANAIITILQSWIFS
notes: 100 residues; also called Neo-2/15; Neolukin-2/15
B2: Mouse Serum Albumin (MSA) fusion to Neoleukin-2/15 (other)
chain: GSDGGSHHHHHHGSGSENLYFQGSGEAHKSEIAHRYNDLGEQHFKGLVLIAFSQYLQKCSYDEHAKLVQEVTDFAKTCVADESAANCDKSLHTLFGDKLCAIPNLRENYGELADCCTKQEPERNECFLQHKDDNPSLPPFERPEAEAMCTSFKENPTTFMGHYLHEVARRHPYFYAPELLYYAEQYNEILTQCCAEADKESCLTPKLDGVKEKALVSSVRQRMKCSSMQKFGERAFKAWAVARLSQTFPNADFAEITKLATDLTKVNKECCHGDLLECADDRAELAKYMCENQATISSKLQTCCDKPLLKKAHCLSEVEHDTMPADLPAIAADFVEDQEVCKNYAEAKDVFLGTFLYEYSRRHPDYSVSLLLRLAKKYEATLEKCCAEANPPACYGTVLAEFQPLVEEPKNLVKTNCDLYEKLGEYGFQNAILVRYTQKAPQVSTPTLVEAARNLGRVGTKCCTLPEDQRLPCVEDYLSAILNRVCLLHEKTPVSEHVTKCCSGSLVERRPCFSALTVDETYVPKEFKAETFTFHSDICTLPEKEKQIKKQTALAELVKHKPKATAEQLKTVMDDFAQFLDTCCKAADKDTCFSTEGPNLVTRCKDALAGGGSGGSGGGSGGSGSGPKKKIQLHAEHALYDALMILNIVKTNSPPAEEKLEDYAFNFELILEEIARLFESGDQKDEAEKAKRMKEWMKRIKTTASEDEQEEMANAIITILQSWIFS
notes: also called MSA-Neo2

Columns and labels:
[1] = biological target: T1, mouse IL-2Rβγc on murine cells (CTLL-2 …); test: cell-based or functional assay
[2] = biological target: T2, human IL-2 receptor α subunit (hIL-2Rα); test: SPR, biotinylated receptor on streptavidin chip
Procedure: (§1) Less than 100 response units (RU) of each ligand was immobilized to minimize mass transfer effects. […] Surface regeneration for all interactions was conducted using 15 s exposure to 1 M MgCl2 in 10 mM sodium acetate pH 5.5. SPR experiments were carried out in HBS-P+ buffer (GE Healthcare) supplemented with 0.2% bovine serum albumin (BSA) at 25° C. and all binding studies were performed at a flow rate of […] to prevent analyte rebinding. Data was visualized and processed using the Biacore T100 evaluation software version 2.0 (GE Healthcare). Equilibrium titration curve fitting and equilibrium binding dissociation (KD) value determination was implemented using GraphPad Prism assuming all binding interactions to be first order. Biolayer interferometry: binding data were collected in a Octet RED96 (ForteBio, Menlo Park, Calif.) and processed using the instrument's integrated software using a 1:1 binding model. […] Analyte proteins were diluted from concentrated stocks into binding buffer. After baseline measurement in binding buffer alone, the binding kinetics were monitored by dipping the biosensors in wells containing 100 nM of the designed protein (association) and then dipping the sensors back into baseline wells (dissociation).

[3] = biological target: T3, mouse IL-2 receptor α subunit (mIL-2Rα); test: SPR, biotinylated receptor on streptavidin chip
Procedure: as §1

[4] = biological target: T4, mouse IL-2 receptor β subunit (mIL-2Rβ); test: SPR, equilibrium titration; biotinylated IL-2Rβ on streptavidin chip
Procedure: as §1

[5] = biological target: T1, mouse IL-2Rβγc on murine cells (CTLL-2 …); test: cell-based or functional assay; remark: listed apart in the source
[6] = biological target: T5, mouse IL-2 receptor βγc heterodimer …; test: SPR, equilibrium titration; IL-2Rγ on streptavidin chip, saturating IL-2Rβ in solution
Procedure: as §1

[7] = biological target: T5, mouse IL-2 receptor βγc heterodimer …; test: biolayer interferometry; biotin-mIL2Gamma on streptavidin biosensor, MSA-Neo2 titrated from 729 to 1 nM with saturating mIL2Beta

| Binder | EC50 of pSTAT5 signaling, murine CD4+ primary cells ex vivo, CD25+ [1] | EC50 of pSTAT5 signaling, murine CD4+ primary cells ex vivo, CD25- [1] | binding result [2] | binding result [3] | Kd [4] | EC50 (CD25+) pSTAT5, murine T (CTLL-2, CD25+) cells [5] | Kd [6] | Kd [7] |
| --- | --- | --- | --- | --- | --- | --- | --- | --- |
| B1 | ~24 pM | ~129 pM | no binding | no binding | 16.1 nM | 70 pM | 38.4 nM | – |
| B2 | – | – | – | – | – | – | – | 33.5 nM |

Source: patent US20200339648A1 (University of Washington, published 2020)
